Test results from patent publication US20170283834A1, “Processes for Producing A Fermentation Product Using A Fermenting Organism” (Novozymes A/S, priority 2014, published 2017).

Legend:
[1] = system: zein; experiment: Relative activity assay of protease variants (zein micro titer plate); type: biochemical; settings: for Relative activity 75° C./65° C.: Table 3
Procedure, shortened: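 Yeast culture supernatants (3 days, 28 °C) incubated over 4 h or overnight on zein-agar plates (pH 4.5 acetate, 0.25 mM ZnSO4) at two temperatures. Zein turbidity read at A630; higher/lower-temperature activity ratio gives relative thermoactivity.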

[2] = system: zein; experiment: Zein-BCA assay, temperature profile of purified protease variants; type: biochemical
Description: Selected variants showing good thermo-stability were purified and the purified enzymes were used in a zein-BCA assay as described below. The remaining protease activity was determined at 60° C. after incubation of the enzyme at elevated temperatures as indicated for 60 min.
Zein-BCA assay was performed to detect soluble protein quantification released from zein by variant proteases at various temperatures.
• 1) Mix 10 ul of 10 ug/ml enzyme solutions and 100 ul of 0.025% zein solution in a micro titer plate (MTP). • 2) Incubate at various temperatures for 60 min. • 3) Add 10 ul of 100% trichloroacetic acid (TCA) solution. • 4) Centrifuge MTP at 3500 rpm for 5 min. • 5) Take out 15 ul to a new MTP containing 100 ul of BCA assay solution (Pierce Cat#:23225, BCA Protein Assay Kit). • 6) Incubate for 30 min. at 60° C. • 7) Measure A562.

[3] = Sample incubated 60 min at 60° C.
[4] = Sample incubated 60 min at 70° C.
[5] = Sample incubated 60 min at 75° C.
[6] = Sample incubated 60 min at 80° C.
[7] = Sample incubated 60 min at 85° C.
[8] = Sample incubated 60 min at 90° C.
[9] = Sample incubated 60 min at 95° C.

Row | Molecule | Relative activity 75° C./65° C. [1] [%] | Relative activity 75° C./70° C. ([1]; Table 5, upper part) [%] | Relative activity 80° C./70° C. ([1]; Table 5, upper part) [%] | Relative activity 85° C./70° C. ([1]; Table 5, upper part) [%] | Bovine serum albumin equivalent peptide released [2, 3] [µg/mL] | Bovine serum albumin equivalent peptide released [2, 4] [µg/mL] | Bovine serum albumin equivalent peptide released [2, 5] [µg/mL] | Bovine serum albumin equivalent peptide released [2, 6] [µg/mL] | Bovine serum albumin equivalent peptide released [2, 7] [µg/mL] | Bovine serum albumin equivalent peptide released [2, 8] [µg/mL] | Bovine serum albumin equivalent peptide released [2, 9] [µg/mL]
1 | JTP050: protease variant of SEQ ID NO: 3: D79L/S87P/A112P/D142L (protein, listed as Thermoascus aurantiacus) MRLVASLTALVALSVPVFPAAVNVKRASSYLEITLSQVSNTLIKAVVQNTGSDELSFVHLNFFKDPAPVKKVSVYRDGSEVQFEGILSRYKSTGLSRDAFTYLAPGESVEDVFDIASTYDLTSGGPVTIRTEGVVPYATANSTDIAGYISYSSNVLTIDVDGAAAATVSKAITPLDRRTRISSCSGSRQSALTTALRNAASLANAAADAAQSGSASKFSEYFKTTSSSTRQTVAARLRAVAREASSSSSGATTYYCLDPYGYCSPNVLAYTLPSYNIIANCDIFYTYLPPLTSTCHAQDQATTALHEFTHAPGVYSPGTLDLAYGYQAAMGLSSSQAVMNADTYALYANAIYLGC | 88 | 55 | 23 | 9 | 86 | 101 | 107 | 107 | 104 | 63 | 36
2 | JTP077: protease variant of SEQ ID NO: 3: A27K/D79L/S87P/A112P/D142L (protein, listed as Thermoascus aurantiacus) MRLVASLTALVALSVPVFPAAVNVKRASSYLEITLSQVSNTLIKAVVQNTGSDELSFVHLNFFKDPAPVKKVSVYRDGSEVQFEGILSRYKSTGLSRDAFTYLAPGESVEDVFDIASTYDLTSGGPVTIRTEGVVPYATANSTDIAGYISYSSNVLTIDVDGAAAATVSKAITPLDRRTRISSCSGSRQSALTTALRNAASLANKAADAAQSGSASKFSEYFKTTSSSTRQTVAARLRAVAREASSSSSGATTYYCLDPYGYCSPNVLAYTLPSYNIIANCDIFYTYLPPLTSTCHAQDQATTALHEFTHAPGVYSPGTLDLAYGYQAAMGLSSSQAVMNADTYALYANAIYLGC | 106 | – | – | – | 82 | 94 | 104 | 105 | 99 | 56 | 31
3 | JTP188: protease variant of SEQ ID NO: 3: D79L Y82F S87G D104P A112P D142L (protein, listed as Thermoascus aurantiacus) MRLVASLTALVALSVPVFPAAVNVKRASSYLEITLSQVSNTLIKAVVQNTGSDELSFVHLNFFKDPAPVKKVSVYRDGSEVQFEGILSRYKSTGLSRDAFTYLAPGESVEDVFDIASTYDLTSGGPVTIRTEGVVPYATANSTDIAGYISYSSNVLTIDVDGAAAATVSKAITPLDRRTRISSCSGSRQSALTTALRNAASLANAAADAAQSGSASKFSEYFKTTSSSTRQTVAARLRAVAREASSSSSGATTYYCLDPFGYCSGNVLAYTLPSYNIIANCPIFYTYLPPLTSTCHAQDQATTALHEFTHAPGVYSPGTLDLAYGYQAAMGLSSSQAVMNADTYALYANAIYLGC | – | – | 43 | – | 71 | 83 | 86 | 93 | 100 | 75 | 53
